T1: CCR5 Q93A, HA-tagged (human, UniProt P51681 1-352)
T1 sequence: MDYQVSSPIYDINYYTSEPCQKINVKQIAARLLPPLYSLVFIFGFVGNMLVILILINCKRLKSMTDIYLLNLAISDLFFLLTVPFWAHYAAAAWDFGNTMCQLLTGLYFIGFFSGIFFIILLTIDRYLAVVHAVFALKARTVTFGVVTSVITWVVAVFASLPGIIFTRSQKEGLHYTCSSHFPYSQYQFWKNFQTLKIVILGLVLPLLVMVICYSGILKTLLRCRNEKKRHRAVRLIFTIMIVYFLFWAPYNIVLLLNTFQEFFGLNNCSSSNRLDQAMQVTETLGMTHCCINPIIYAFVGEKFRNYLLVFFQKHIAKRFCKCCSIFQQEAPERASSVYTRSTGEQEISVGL

T2: CCR5 D95A, HA-tagged (human, UniProt P51681 1-352)
T2 sequence: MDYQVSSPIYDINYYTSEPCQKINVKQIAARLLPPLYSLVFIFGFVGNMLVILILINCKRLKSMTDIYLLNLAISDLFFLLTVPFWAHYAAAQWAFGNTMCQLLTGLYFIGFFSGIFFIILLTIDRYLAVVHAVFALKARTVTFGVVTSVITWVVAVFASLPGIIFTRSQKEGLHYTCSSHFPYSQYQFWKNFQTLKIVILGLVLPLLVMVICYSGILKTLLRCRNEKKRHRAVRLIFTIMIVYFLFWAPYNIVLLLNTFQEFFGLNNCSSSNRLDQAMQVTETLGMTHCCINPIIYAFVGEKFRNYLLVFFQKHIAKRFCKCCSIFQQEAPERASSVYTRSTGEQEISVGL

T3: CCR5 R31A, HA-tagged (human, UniProt P51681 1-352)
T3 sequence: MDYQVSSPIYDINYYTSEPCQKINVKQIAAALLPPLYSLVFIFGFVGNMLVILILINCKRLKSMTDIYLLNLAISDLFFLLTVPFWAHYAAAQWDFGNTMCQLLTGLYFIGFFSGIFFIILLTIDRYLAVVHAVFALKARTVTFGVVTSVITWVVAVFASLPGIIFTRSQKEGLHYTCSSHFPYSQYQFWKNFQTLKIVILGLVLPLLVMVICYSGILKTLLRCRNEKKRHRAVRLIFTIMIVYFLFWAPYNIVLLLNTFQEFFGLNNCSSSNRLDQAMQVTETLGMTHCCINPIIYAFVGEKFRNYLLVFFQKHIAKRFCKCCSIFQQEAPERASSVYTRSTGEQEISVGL

T4: CCR5 Q188A, HA-tagged (human, UniProt P51681 1-352)
T4 sequence: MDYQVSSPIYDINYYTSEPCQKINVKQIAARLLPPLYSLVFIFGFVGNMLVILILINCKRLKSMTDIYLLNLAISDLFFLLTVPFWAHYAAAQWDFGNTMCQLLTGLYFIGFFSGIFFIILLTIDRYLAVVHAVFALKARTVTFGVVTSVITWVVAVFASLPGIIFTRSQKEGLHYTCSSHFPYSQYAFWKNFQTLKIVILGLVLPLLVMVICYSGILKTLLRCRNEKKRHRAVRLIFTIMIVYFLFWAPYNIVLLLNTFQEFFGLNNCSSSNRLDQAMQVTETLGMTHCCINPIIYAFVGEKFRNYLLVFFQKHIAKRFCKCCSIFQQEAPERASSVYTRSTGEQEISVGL

T5: CCR5 D11A, HA-tagged (human, UniProt P51681 1-352)
T5 sequence (looked up): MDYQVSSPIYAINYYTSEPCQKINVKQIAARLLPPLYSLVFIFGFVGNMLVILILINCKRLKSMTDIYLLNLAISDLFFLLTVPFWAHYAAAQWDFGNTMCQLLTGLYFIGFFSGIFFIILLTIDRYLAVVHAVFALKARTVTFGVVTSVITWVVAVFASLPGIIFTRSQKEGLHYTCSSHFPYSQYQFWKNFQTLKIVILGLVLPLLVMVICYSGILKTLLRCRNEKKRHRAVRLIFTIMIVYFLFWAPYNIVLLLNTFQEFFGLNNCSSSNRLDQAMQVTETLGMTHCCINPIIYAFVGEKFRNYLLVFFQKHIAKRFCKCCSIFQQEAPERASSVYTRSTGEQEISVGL

T6: CCR5 H175A, HA-tagged (human, UniProt P51681 1-352)
T6 sequence: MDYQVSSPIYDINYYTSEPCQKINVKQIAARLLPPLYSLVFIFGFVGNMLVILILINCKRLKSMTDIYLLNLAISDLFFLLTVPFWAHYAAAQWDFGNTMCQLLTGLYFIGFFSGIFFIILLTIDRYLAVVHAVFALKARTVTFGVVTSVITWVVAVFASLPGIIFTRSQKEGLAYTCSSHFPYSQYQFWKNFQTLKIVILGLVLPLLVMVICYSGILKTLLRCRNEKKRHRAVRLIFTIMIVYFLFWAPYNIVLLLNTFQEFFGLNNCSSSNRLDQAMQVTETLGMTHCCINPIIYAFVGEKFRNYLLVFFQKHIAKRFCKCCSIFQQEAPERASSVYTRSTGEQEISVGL

T7: CCR5 Q102A, HA-tagged (human, UniProt P51681 1-352)
T7 sequence: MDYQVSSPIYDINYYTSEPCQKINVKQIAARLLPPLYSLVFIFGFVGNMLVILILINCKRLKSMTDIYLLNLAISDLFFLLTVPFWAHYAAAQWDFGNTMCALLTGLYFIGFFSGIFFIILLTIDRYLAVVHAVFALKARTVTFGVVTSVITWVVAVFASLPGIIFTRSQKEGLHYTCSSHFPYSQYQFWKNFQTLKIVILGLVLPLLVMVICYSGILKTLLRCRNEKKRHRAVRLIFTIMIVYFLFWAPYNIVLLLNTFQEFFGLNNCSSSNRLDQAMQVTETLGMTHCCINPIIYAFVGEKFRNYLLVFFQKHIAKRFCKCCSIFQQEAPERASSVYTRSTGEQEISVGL


Legend:
Experiment in all cases: cell-based or functional assay
CCR5 Q93A, HA-tagged = biological target: T1, CCR5 Q93A, HA-tagged
CCR5 D95A, HA-tagged = biological target: T2, CCR5 D95A, HA-tagged
CCR5 R31A, HA-tagged = biological target: T3, CCR5 R31A, HA-tagged
CCR5 Q188A, HA-tagged = biological target: T4, CCR5 Q188A, HA-tagged
CCR5 D11A, HA-tagged = biological target: T5, CCR5 D11A, HA-tagged
CCR5 H175A, HA-tagged = biological target: T6, CCR5 H175A, HA-tagged
CCR5 Q102A, HA-tagged = biological target: T7, CCR5 Q102A, HA-tagged

Binder | relative % inhibition of NLluc/JR-FL entry into U87MG-CD4 cells by 2 µg/ml chemokine (wild-type = 100) (CCR5 Q93A, HA-tagged) [%] | relative % inhibition of NLluc/JR-FL entry into U87MG-CD4 cells by 2 µg/ml chemokine (wild-type = 100) (CCR5 D95A, HA-tagged) [%] | relative % inhibition of NLluc/JR-FL entry into U87MG-CD4 cells by 2 µg/ml chemokine (wild-type = 100) (CCR5 R31A, HA-tagged) [%] | relative % inhibition of NLluc/JR-FL entry into U87MG-CD4 cells by 2 µg/ml chemokine (wild-type = 100) (CCR5 Q188A, HA-tagged) [%] | relative % inhibition of NLluc/JR-FL entry into U87MG-CD4 cells by 2 µg/ml chemokine (wild-type = 100) (CCR5 D11A, HA-tagged) [%] | relative % inhibition of NLluc/JR-FL entry into U87MG-CD4 cells by 2 µg/ml chemokine (wild-type = 100) (CCR5 H175A, HA-tagged) [%] | relative % inhibition of NLluc/JR-FL entry into U87MG-CD4 cells by 2 µg/ml chemokine (wild-type = 100) (CCR5 Q102A, HA-tagged) [%]
RANTES, recombinant human (ligand) SPYSSDTTPCCFAYIARPLPRAHIKEYFYTSGKCSNPAVVFVTRKNRQVCANPEKKWVREYINSLEMS | 114 | 121 | -16 | 51 | 7 | 95 | 93
macrophage inflammatory protein (MIP)-1β, recombinant human (ligand, UniProt P13236 24-92, looked up) APMGSDPPTACCFSYTARKLPRNFVVDYYETSSLCSQPAVVFQTKRSKQVCADPSESWVQEYVYDLELN | 97 | 112 | 2 | 75 | 41 | 100 | 98

Reference: US20040086528A1 (PROGENICS PHARMACEUTICALS, published 2004)
